Assays:
[1] = target: high-affinity cell surface thrombin receptor on mouse embryo (ME) cells (mouse) (UniProt P30558); experiment: competition with [^125I]-alpha-thrombin on ME cells; reference p508-530
[2] = target: high-affinity cell surface thrombin receptor on mouse embryo (ME) cells (mouse) (UniProt P30558); experiment: cell-based or functional assay
[3] = target: high-affinity cell surface thrombin receptor on mouse embryo (ME) cells (mouse) (UniProt P30558); experiment: competition with [^125I]-alpha-thrombin (1 nM) on quiescent ME cells; at 2.7 uM peptide
[4] = target: high-affinity cell surface thrombin receptor on mouse embryo (ME) cells (mouse) (UniProt P30558); experiment: competition with [^125I]-alpha-thrombin (1 nM) for specific binding to quiescent ME cells, 23 C
[5] = target: high-affinity cell surface thrombin receptor on mouse embryo (ME) cells (mouse) (UniProt P30558); experiment: competition with [^125I]-alpha-thrombin on ME cells
[6] = target: high-affinity cell surface thrombin receptor on mouse embryo (ME) cells (mouse) (UniProt P30558); experiment: competition with [^125I]-alpha-thrombin (1 nM) on quiescent ME cells

B1: synthetic peptide p517-520 (residues 517 to 520 of human prothrombin) (peptide)
peptide: RGDA
For B1, the fold higher concentration for 30% inhibition than p508-530 [1] was 50 fold, the inhibition of alpha-thrombin stimulated DNA synthesis in ME cells by 625 nM p517-520, at 0.8 nM alpha-thrombin [2] was 75% and the inhibition of alpha-thrombin stimulated DNA synthesis in ME cells by 625 nM p517-520, at 13.0 nM alpha-thrombin [2] was 35%. It also gave a molar excess of p517-520 over alpha-thrombin required for inhibition of stimulation [2] of 500 to 1000 fold, a Maximal % Inhibition [3] of 50% and a Concentration Required for 30% Inhibition [4] of 300 nM. It also gave a percent of [^125I]-alpha-thrombin binding competed [5] of 30 to 50% and a concentration at Maximal % Inhibition [6] of 2.7 µM.
